One may read the stoichiometry N as the number of molecules, sites or subunits per partner or assembly.

Consider 1 substance from publication PMC9457993.

Experiment [1] concerns the target Liraglutide. As to the kind of experiment: AF4-MALS (asymmetrical flow field-flow fractionation with UV, fluorescence, dRI and MALS detection); thermally stressed, aggregated API (APIaggr), 3 mg/mL in formulation, 60 uL injected; formulation buffer as mobile phase.
Experiment [2] concerns the target Liraglutide. The description is as above. This is another data set of the same source.
Experiment [3] has as its target Liraglutide. As to the kind of experiment: SEC-MALS; HPLC-UV-dRI-MALS, Shodex Protein KW-802.5; mobile phase 1 g/L L-Arginine: Acetonitrile: acetic acid, 35:50:15 (results say 30% acetonitrile), isocratic 0.5 mL/min; Liraglutide FDF Lot #33387-18 and Saxenda Lot #JP54138, 6 mg/mL.
The target in experiment [4] is Liraglutide. As to the kind of experiment: AF4-MALS (asymmetrical flow field-flow fractionation with UV, fluorescence, dRI and MALS detection); Liraglutide 6 mg/mL (API resuspended in water or formulation, FDF, Victoza, Saxenda), 30 uL injected; formulation buffer (disodium phosphate dihydrate, propylene glycol, phenol, water) as mobile phase; PES membrane 1 kDa cutoff; molar mass by MALS with dRI; n = 3.

“And” between values parts separate entries of the source, which are not always exact repeats. Equal entries are not always repeated.

For the substance Liraglutide (peptide), the stoichiometry N in experiment [1] is greater than 20 units; in experiment [2], 20 units; in experiment [3], 2 and 4; in experiment [4], 5.2 units. Also, the relative abundance of monomer in experiment [3] was greater than 99.5%.
